Results on one substance are retold here after US20200277359A1.

In the assay the target is Recombinant CHIKV E2 ectodomain protein (corresponding to the CHIKV-LR2006 strain) (Chikungunya virus strain LR2006). Description: ELISA on coated E2 ectodomain. For orientation: An ELISA detects its analyte on a solid surface through an enzyme-linked reagent.

Regarding murine CHK-152 (antibody), the OD450 was less than 0.1 od.
